# Experimental data: patent publication US20220213461A1
# T1: GN14-SLAN (GISTKSIPPISYRNSLAN)
# T1 chain: GISTKSIPPISYRNSLAN
# B1: VyPAL2 (recombinant, insect-cell expressed, acid-activated active form) (protein)
# chain: STNDDDSIGTRWAVLIAGSKGYHNYRHQADVCHMYQILRKGGVKDENIIVFMYDDIAYNESNPFPGIIINKPGGENVYKGVPKDYTGEDINNVNFLAAILGNKSAIIGGSGKVLDTSPNDHIFIYYADHGAPGKIGMPSKPYLYADDLVDTLKQKAATGTYKSMVFYVEACNAGSMFEGLLPEGTNIYAMAASNSTEGSWITYCPGTPDFPPEFDVCLGDLWSITFLEDCDAHNLRTETVHQQFELVKKKIAYASTVSQYGDIPISKDSLSVYMGTDPANDNRTFVDEN
# B2: butelase-1 (active form extracted from Clitoria ternatea plant material) (protein)
# chain: VEGTRWAVLVAGSKGYVNYRHQADVCHAYQILKKGGLKDENIIVFMYDDIAYNESNPHPGVIINHPYGSDVYKGVPKDYVGEDINPPNFYAVLLANKSALTGTGSGKVLDSGPNDHVFIYYTDHGGAGVLGMPSKPYIAASDLNDVLKKKHASGTYKSIVFYVESCESGSMFDGLLPEDHNIYVMGASDTGESSWVTYCPLQHPSPPPEYDVCVGDLFSVAWLEDCDVHNLQTETFQQQYEVVKNKTIVALIEDGTHVVQYGDVGLSKQTLFVYMGTDPAN
# Legend:
# [1] = biological target: butelase-1 (active form extracted from Clitoria ternatea plant material) (Clitoria ternatea); experiment: affinity binding of glycosylated enzyme to ConA agarose beads; unbound protein measured by A280
# [2] = biological target: butelase-1 (active form extracted from Clitoria ternatea plant material) (Clitoria ternatea); experiment: affinity binding of glycosylated enzyme to ConA agarose beads, 4 C 3 h; unbound protein in flow-through measured by A280
# [3] = biological target: biotinylated butelase-1 (Clitoria ternatea); experiment: affinity binding of biotinylated enzyme to NeutrAvidin agarose beads, pH 6.5, 4 C 3 h; unbound protein measured by A280
# [4] = biological target: biotinylated VyPAL2 (Viola yedoensis); experiment: as above
# [5] = biological target: T1, GN14-SLAN (GISTKSIPPISYRNSLAN)
molecule,measurement,setting,value
Concanavalin A (ConA) on agarose beads (from UniProt P02866 30-281),percent of enzyme remaining in the solution (unbound),[1],61%
same,Yield (%) (observed / expected maximal concentration on beads),[2],39%
NeutrAvidin (deglycosylated avidin) on agarose beads (from UniProt P02701 25-152),Yield (%) (observed / expected maximal concentration on beads),[3],49%
same,Yield (%) (observed / expected maximal concentration on beads),[4],45%
B1,"catalytic efficiency (kcat/KM) of cyclization, HPLC-based kinetics, pH 6.5, 37 C",[5],"274,325 M^-1s^-1"
B2,"catalytic efficiency (kcat/KM) of cyclization, HPLC-based kinetics, pH 6.5, 37 C",[5],"971,936 M^-1s^-1"
